Source: patent US20240180966A1 (YEDA RESEARCH AND DEVELOPMENT, published 2024)
Blank lines part the entries; values can stand above or below the binder they belong to.

How the values were obtained:
[1] = molecular target: T1, NRAS Q61K (RAS.Q61K; the sequence is shared by NRAS, KRAS and HRAS) peptide on HLA-A*01:01 (human); test: multimer staining
T1 peptide: ILDTAGKEEY

[2] = molecular target: T2, NRAS Q61R (RAS.Q61R) peptide on HLA-A*01:01 (human); test: activation reporter or marker
T2 peptide: ILDTAGREEY

[3] = molecular target: T3, NRAS wild-type (Q61) peptide on HLA-A*01:01 (human); test: cytokine release
T3 peptide: ILDTAGQEEY

HLA-A*01:01 [4] = molecular target: T4, HLA-A*01:01 (human); test: HLA-peptidomics (W6/32 immunoaffinity, LC-MS/MS) of HLA-A*01:01 mono-allelic 721.221 cells with a RAS.Q61K minigene
T4 construct: whole, on cells; also called HLA allele A*01:01

HLA-A*01:01 [5] = molecular target: T4, HLA-A*01:01; test: HLA-peptidomics (targeted MS) of HLA-A*01:01 mono-allelic 721.221 cells with a RAS.Q61R minigene

B2: N17.2 (TCR)
alpha TRAV5 TRAJ9 CDR3: CAESSGGGFKTIF
beta TRBV6-6 TRBJ2-7 CDR3: CASSTPGPSAYEQYF
binding result [1]: recognises
binding result [2]: no recognition
binding result [3]: no recognition

B4: NH2 (TCR)
alpha TRAV19 TRAJ39 CDR3: CALSETINNAGNMLTF
beta TRBV6-1 TRBJ1-1 CDR3: CAASQNTEAFF
binding result [1]: recognises
binding result [3]: no recognition

Binder: ILDTAGKEEY (also called RAS.Q61K-derived neopeptide) [ILDTAGKEEY (SEQ ID NO: 1) neopeptide]
binding result (HLA-A*01:01 [4]): binds

Further lines, results first:

binding result [1]: recognises
binding result [2]: no recognition
binding result [3]: no recognition
B1: N135.1 (TCR)
alpha TRAV19 TRAJ39 CDR3: CALSESHNNAGNMLTF
beta TRBV6-1 TRBJ1-1 CDR3: CAASQNTEAFF

binding result [1]: recognises
binding result [2]: no recognition
binding result [3]: no recognition
B3: N17.3.2 (TCR)
alpha TRAV19 TRAJ17 CDR3: CALSESGDAAGNKLTF
beta TRBV6-1 TRBJ1-1 CDR3: CAEGENTEAFF

binding result (HLA-A*01:01 [5]): binds
Binder: ILDTAGREEY (also called RAS.Q61R-derived neopeptide) [ILDTAGREEY (SEQ ID NO: 34) neopeptide]
